Data: publication PMC6435710

How the values were obtained:
[1] = biological target: salmon Calcitonin (salmon); assay: cross-linking; PICUP (Ru(bpy)3, ammonium persulfate, 2 s light) then tricine SDS-PAGE, silver stain and densitometry; PFOs-enriched SEC fractions (29th and 30th), 80 uM
[2] = biological target: salmon Calcitonin (salmon); assay: cross-linking; PICUP (Ru(bpy)3, ammonium persulfate, 2 s light) then tricine SDS-PAGE, silver stain and densitometry; native unfractioned Monomer-enriched sample (powder dissolved in desalted water, 80 uM)
[3] = biological target: salmon Calcitonin (salmon); assay: SEC; Sephadex G50 column at 4 °C, 5 mM phosphate buffer pH 7.4; spontaneously aggregated native sCT (2 mg incubated overnight at room temperature); calibrated with BSA, cytochrome c, aprotinin, somatostatin; absorbance at 280 nm

- PFOs% (trimers + tetramers + pentamers + hexamers percentage of the gel lane) [1]: 54%
- PFOs% (trimers + tetramers + pentamers + hexamers percentage of the gel lane) [2]: 16.5%
- stoichiometry N [3]: 2
Substance: salmon Calcitonin (peptide)
